From US20250369982A1 (INCENDIATHERAPEUTICS, published 2025)
Read-outs that look alike come from different tables or passages of the source.

Assays:
[1] = molecular target: T1, mouse DDR1 extracellular domain (mouse, UniProt Q03146 22-415); experiment: SPR
T1 construct: extracellular domain
T1 sequence (looked up): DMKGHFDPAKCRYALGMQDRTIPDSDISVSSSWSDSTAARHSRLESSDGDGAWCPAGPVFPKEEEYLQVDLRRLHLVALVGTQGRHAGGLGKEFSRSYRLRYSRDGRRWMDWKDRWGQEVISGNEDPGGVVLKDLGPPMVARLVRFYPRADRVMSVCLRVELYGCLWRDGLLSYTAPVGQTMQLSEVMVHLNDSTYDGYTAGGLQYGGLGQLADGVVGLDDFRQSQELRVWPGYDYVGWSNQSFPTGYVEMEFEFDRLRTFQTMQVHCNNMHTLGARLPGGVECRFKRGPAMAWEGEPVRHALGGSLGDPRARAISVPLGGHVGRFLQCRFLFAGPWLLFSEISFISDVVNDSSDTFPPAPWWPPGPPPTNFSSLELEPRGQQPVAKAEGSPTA

[2] = molecular target: T2, DDR1 on T47D breast cancer cells (human, UniProt Q08345 19-913); experiment: cell-based or functional assay
T2 sequence (Q08345 19-913 limits assumed, stated change not applied): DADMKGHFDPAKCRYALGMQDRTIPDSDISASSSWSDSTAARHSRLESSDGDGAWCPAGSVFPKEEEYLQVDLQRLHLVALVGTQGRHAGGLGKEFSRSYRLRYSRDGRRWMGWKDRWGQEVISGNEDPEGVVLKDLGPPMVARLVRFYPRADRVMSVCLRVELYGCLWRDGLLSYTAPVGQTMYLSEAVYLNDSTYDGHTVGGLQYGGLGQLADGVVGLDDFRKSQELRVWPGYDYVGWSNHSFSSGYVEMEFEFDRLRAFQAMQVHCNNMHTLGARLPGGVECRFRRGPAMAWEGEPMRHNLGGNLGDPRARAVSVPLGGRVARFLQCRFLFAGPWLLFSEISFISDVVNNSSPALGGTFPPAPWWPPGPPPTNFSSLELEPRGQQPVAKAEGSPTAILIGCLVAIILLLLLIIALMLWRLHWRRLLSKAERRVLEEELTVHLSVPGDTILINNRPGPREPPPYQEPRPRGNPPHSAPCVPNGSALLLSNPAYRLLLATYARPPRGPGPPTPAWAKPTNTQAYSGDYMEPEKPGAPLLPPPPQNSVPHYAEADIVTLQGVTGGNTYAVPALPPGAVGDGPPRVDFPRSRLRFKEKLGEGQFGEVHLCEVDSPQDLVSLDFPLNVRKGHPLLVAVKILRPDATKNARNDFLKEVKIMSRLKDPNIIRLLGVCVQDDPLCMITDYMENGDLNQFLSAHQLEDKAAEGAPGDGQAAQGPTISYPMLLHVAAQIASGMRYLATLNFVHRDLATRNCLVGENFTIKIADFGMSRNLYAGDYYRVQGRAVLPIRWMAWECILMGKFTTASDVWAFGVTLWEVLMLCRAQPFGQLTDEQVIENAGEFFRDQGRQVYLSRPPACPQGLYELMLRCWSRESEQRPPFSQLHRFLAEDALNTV

[3] = molecular target: DDR1 overexpressed on HEK293 cells (Homo sapiens (Human), UniProt Q08345 19-913); experiment: cell-based or functional assay
Sequence of DDR1 overexpressed on HEK293 cells (Q08345 19-913 limits assumed): as the sequence (Q08345 19-913 limits assumed, stated change not applied) above

[4] = molecular target: T2, DDR1 on T47D breast cancer cells; experiment: cell-based or functional assay; remark: listed apart in the source
[5] = molecular target: T2, DDR1 on T47D breast cancer cells; experiment: cell-based or functional assay; remark: listed apart in the source

B1: mAb #33 inert IgG1 Fc (antibody, V domains shown)
VH: QSVEESGGRLVTPGGSLTLTCTVSGFSLSSYDMSWVRQAPGKGLEWIGISWNSGFVDYASWAKGRFSISKTSTTVDLKITSPTTEDTATYFCARLGADDIYYFNLWGPGTLVTISS
VL: ELVMTQTPASVEAAVGGTVTIKCQASETISSRLAWYQQKPGQPPKLLIYQASKLPSGVPSRFKGTGSGTEYTLTISDLECADAATYYCQGCYYGGGSFYDSAFGGGTEVVVKR
notes: also called chimeric rabbit/human mAb #33 with inert IgG1 Fc; chimeric mAb #33
Question: How did the Kd [1] turn out when B1 was run?
Answer: 1.01 nM

Question: And the koff [1]?
Answer: 0.00106 s⁻¹

Question: What about the kon [1] of the same binder?
Answer: 1.05e+06 M⁻¹ s⁻¹

B2: mAb #9H1 WT IgG1 Fc (antibody)
heavy: not shown
light: DIQMTQSPSSVSASVGDRVTITCQASQSIGSVLAWYQQKPGKAPKLLISGVFDLASGVPSRFSGSGSGTDFTLTISSLQPEDFATYYCQYIPYGSSPFGGGTKVEIKRTVAAPSVFIFPPSDEQLKSGTASVVCLLNNFYPREAKVQWKVDNALQSGNSQESVTEQDSKDSTYSLSSTLTLSKADYEKHKVYACEVTHQGLSSPVTKSFNRGEC
notes: also called humanized mAb #9H1 with wt IgG1Fc
Question: Which results are given for B2?
Answer: IC50, inhibition of human collagen I (50 µg/ml)-induced DDR1 phosphorylation in T47D cells (pDDR1 normalised with vinculin), single experiment; unit taken from the axis [9H1] (µg/ml) [2]: 0.09 µg/ml; IC50 for 9H1-WT inhibition of DDR1 OE cell adhesion to collagen I-coated plates [3]: ~0.065 µg/mL; IC50 for inhibiting Collagen I-induced phosphorylation of DDR1 in T47D cells [4]: 0.05 to 0.06 µg/mL; Kd [1]: 17.6 nM; IC50, inhibition of human collagen I (50 µg/ml)-induced DDR1 phosphorylation in T47D cells (pDDR1 normalised with vinculin), single experiment; unit taken from the axis [9H1] (µg/ml) [5]: 0.05 µg/ml

B3: mAb #9H1 inert IgG1 Fc (antibody)
heavy: QVQLVESGGRVVQPGRSLRLSCTASGFSLNRYYMLWVRQAPGKGLEWIGTISYGDTTYYASWAKGRFTISRDNSKNTLYLQMNSLRAEDTAVYYCARADTGDNGYLGLQLWGQGTLVTVSSASTKGPSVFPLAPSSKSTSGGTAALGCLVKDYFPEPVTVSWNSGALTSGVHTFPAVLQSSGLYSLSSVVTVPSSSLGTQTYICNVNHKPSNTKVDKRVEPKSCDKTHTCPPCPAPEAEGAPSVFLFPPKPKDTLMISRTPEVTCVVVDVSHEDPEVKFNWYVDGVEVHNAKTKPREEQYNSTYRVVSVLTVLHQDWLNGKEYKCKVSNKALPSSIEKTISKAKGQPREPQVYTLPPSREEMTKNQVSLTCLVKGFYPSDIAVEWESNGQPENNYKTTPPVLDSDGSFFLYSKLTVDKSRWQQGNVFSCSVMHEALHNHYTQKSLSLSPGK
light: DIQMTQSPSSVSASVGDRVTITCQASQSIGSVLAWYQQKPGKAPKLLISGVFDLASGVPSRFSGSGSGTDFTLTISSLQPEDFATYYCQYIPYGSSPFGGGTKVEIKRTVAAPSVFIFPPSDEQLKSGTASVVCLLNNFYPREAKVQWKVDNALQSGNSQESVTEQDSKDSTYSLSSTLTLSKADYEKHKVYACEVTHQGLSSPVTKSFNRGEC
notes: No sentence equates the two names; also called humanized mAb #9H1 with inert IgG1Fc; humanized DDR1-9 1 inert IgG1 Fc
Question: How did the Kd [1] turn out when B3 was run?
Answer: 19 nM
